Measurements: US20080182247A1

Target: CD70 (human) (UniProt P32970)
Assay: cell-based or functional assay

Chain of CD70 (human) (P32970 whole entry): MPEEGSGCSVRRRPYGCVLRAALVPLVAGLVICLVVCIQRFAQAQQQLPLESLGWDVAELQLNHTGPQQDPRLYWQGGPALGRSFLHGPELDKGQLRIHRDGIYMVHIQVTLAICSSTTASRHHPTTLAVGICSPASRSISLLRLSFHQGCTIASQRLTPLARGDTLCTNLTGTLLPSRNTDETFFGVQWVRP

With “anti-CD70 monoclonal antibody (HNE51) (DAKO)” the IgG synthesis by purified B cells stimulated with LPS (control without T cells) was 125 µg/mL.
